According to IntAct's records for PubMed 15895076:

B1: Dynamin-2 (Rattus norvegicus (Rat)), P39052 (parent)
chain: MGNRGMEELIPLVNKLQDAFSSIGQSCHLDLPQIAVVGGQSAGKSSVLENFVGRDFLPRGSGIVTRRPLILQLIFSKTEYAEFLHCKSKKFTDFDEVRQEIEAETDRVTGTNKGISPVPINLRVYSPHVLNLTLIDLPGITKVPVGDQPPDIEYQIKDMILQFISRESSLILAVTPANMDLANSDALKLAKEVDPQGLRTIGVITKLDLMDEGTDARDVLENKLLPLRRGYIGVVNRSQKDIEGRKDIRAALAAERKFFLSHPAYRHMADRMGTPHLQKTLNQQLTNHIRESLPTLRSKLQSQLLSLEKEVEEYKNFRPDDPTRKTKALLQMVQQFGVDFEKRIEGSGDQVDTLELSGGARINRIFHERFPFELVKMEFDEKDLRREISYAIKNIHGVRTGLFTPDLAFEAIVKKQVVKLKEPCLKCVDLVIQELISTVRQCTSKLSSYPRLREETERIVTTYIREREGRTKDQILLLIDIEQSYINTNHEDFIGFANAQQRSTQLNKKRAIPNQGEILVIRRGWLTINNISLMKGGSKEYWFVLTAESLSWYKDEEEKEKKYMLPLDNLKIRDVEKGFMSNKHVFAIFNTEQRNVYKDLRQIELACDSQEDVDSWKASFLRAGVYPEKDQAENEDGAQENTFSMDPQLERQVETIRNLVDSYVAIINKSIRDLMPKTIMHLMINNTKAFIHHELLAYLYSSADQSSLMEESAEQAQRRDDMLRMYHALKEALNIIGDISTSTVSTPVPPPVDDTWLQNTSSHSPTPQRRPVSSVHPPGRPPAVRGPTPGPPLIPMPVGATSSFSAPPIPSRPGPQNVFANNDPFSAPPQIPSRPARIPPGIPPGVPSRRAPAAPSRPTIIRPAEPSLLD
B2: Focal adhesion kinase 1 (Homo sapiens), Q05397 (parent)
chain: MAAAYLDPNLNHTPNSSTKTHLGTGMERSPGAMERVLKVFHYFESNSEPTTWASIIRHGDATDVRGIIQKIVDSHKVKHVACYGFRLSHLRSEEVHWLHVDMGVSSVREKYELAHPPEEWKYELRIRYLPKGFLNQFTEDKPTLNFFYQQVKSDYMLEIADQVDQEIALKLGCLEIRRSYWEMRGNALEKKSNYEVLEKDVGLKRFFPKSLLDSVKAKTLRKLIQQTFRQFANLNREESILKFFEILSPVYRFDKECFKCALGSSWIISVELAIGPEEGISYLTDKGCNPTHLADFTQVQTIQYSNSEDKDRKGMLQLKIAGAPEPLTVTAPSLTIAENMADLIDGYCRLVNGTSQSFIIRPQKEGERALPSIPKLANSEKQGMRTHAVSVSETDDYAEIIDEEDTYTMPSTRDYEIQRERIELGRCIGEGQFGDVHQGIYMSPENPALAVAIKTCKNCTSDSVREKFLQEALTMRQFDHPHIVKLIGVITENPVWIIMELCTLGELRSFLQVRKYSLDLASLILYAYQLSTALAYLESKRFVHRDIAARNVLVSSNDCVKLGDFGLSRYMEDSTYYKASKGKLPIKWMAPESINFRRFTSASDVWMFGVCMWEILMHGVKPFQGVKNNDVIGRIENGERLPMPPNCPPTLYSLMTKCWAYDPSRRPRFTELKAQLSTILEEEKAQQEERMRMESRRQATVSWDSGGSDEAPPKPSRPGYPSPRSSEGFYPSPQHMVQTNHYQVSGYPGSHGITAMAGSIYPGQASLLDQTDSWNHRPQEIAMWQPNVEDSTVLDLRGIGQVLPTHLMEERLIRQQQEMEEDQRWLEKEERFLKPDVRLSRGSIDREDGSLQGPIGNQHIYQPVGKPDPAAPPKKPPRPGAPGHLGSLASLSSPADSYNEGVKLQPQEISPPPTANLDRSNDKVYENVTGLVKAVIEMSSKIQPAPPEEYVPMVKEVGLALRTLLATVDETIPLLPASTHREIEMAQKLLNSDLGELINKMKLAQQYVMTSLQQEYKKQMLTAAHALAVDAKNLLDVIDQARLKMLGQTRPH
partner: B1 chain

Variants of: B1
Details: with fak1_mouse Ptk2, P34152

Variant	effect of a mutation on the interaction
K44E	increasing interaction

Variants of: B2
Details: with dyn2_rat Dnm2, P39052

Variant	effect of a mutation on the interaction
Y925F	disrupting interaction
